Target: SNARE complex including SNAP-25, syntaxin and VAMP2 (endogenous, in PC12 cells) (rat (PC12 cells, derived from rats), UniProt P60881 1-206; P32851 1-288; P63045 2-116)
Experiment: cell-based or functional assay

Sequence of SNARE complex including SNAP-25, syntaxin and VAMP2 (endogenous, in PC12 cells) (P60881 whole entry, chain 1 of 3): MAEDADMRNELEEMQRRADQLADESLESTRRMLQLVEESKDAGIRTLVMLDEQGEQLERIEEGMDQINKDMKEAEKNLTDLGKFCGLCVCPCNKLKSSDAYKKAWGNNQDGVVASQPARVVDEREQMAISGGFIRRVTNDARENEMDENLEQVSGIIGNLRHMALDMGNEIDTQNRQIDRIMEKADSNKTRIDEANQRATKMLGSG
Sequence of SNARE complex including SNAP-25, syntaxin and VAMP2 (endogenous, in PC12 cells) (P32851 whole entry, chain 2 of 3): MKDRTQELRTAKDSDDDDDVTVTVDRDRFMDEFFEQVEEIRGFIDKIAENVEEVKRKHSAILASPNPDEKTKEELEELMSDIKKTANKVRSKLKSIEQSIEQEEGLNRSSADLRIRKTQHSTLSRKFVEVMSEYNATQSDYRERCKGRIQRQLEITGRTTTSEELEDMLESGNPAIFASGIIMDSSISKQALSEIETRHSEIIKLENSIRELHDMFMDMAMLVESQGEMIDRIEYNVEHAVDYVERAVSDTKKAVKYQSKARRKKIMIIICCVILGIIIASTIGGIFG
Sequence of SNARE complex including SNAP-25, syntaxin and VAMP2 (endogenous, in PC12 cells) (P63045 2-116, chain 3 of 3): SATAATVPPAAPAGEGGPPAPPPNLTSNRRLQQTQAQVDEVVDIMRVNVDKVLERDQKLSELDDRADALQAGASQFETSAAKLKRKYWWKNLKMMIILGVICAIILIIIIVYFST

neurotransmitter (norepinephrine) secretion rate in PC12 cells compared to an untreated group, peptide at 20 µM | Binder
56% | RRWRRWNRFNRRRCRRRLQQTQAQVDEVV
75% | RRLQQTQAQVDEVVDIM [P4 peptide, h-VAMP2 (30-46 aa)]

Source: US20250325468A1 (MEDYTOX, published 2025)
